In one data set the target is Pol λ WT (Homo sapiens, UniProt Q9UGP5 1-575). Description: EMSA; 40 or 200 nM Pol λ; EMSA: 50 mM Tris-HCl pH 7.5, 100 mM KCl, 2.5 mM MgCl2, 1 mM DTT, 4% glycerol, 0.05% Triton X-100, 0.1 mg/ml BSA, 10-20 nM DNA, 30 min at 25 °C; 4-5% native PAGE, 0.5x TBE, 4 °C. As to conditions: protein: recombinant; tags: FLAG; label: 5' IRDye 700 on one strand; 5-nt gap. In general terms: A gel shift assay detects complexes by their altered migration in electrophoresis.

The target in another data set is PAXX (cleaved) (Homo sapiens, UniProt Q9BUH6 1-204). The data set can be described thus: EMSA; 0.5 µM PAXX; EMSA: 50 mM Tris-HCl pH 7.5, 100 mM KCl, 2.5 mM MgCl2, 1 mM DTT, 4% glycerol, 0.05% Triton X-100, 0.1 mg/ml BSA, 10-20 nM DNA, 30 min at 25 °C; 4-5% native PAGE, 0.5x TBE, 4 °C. As to conditions: protein: recombinant; tags: GST tag cleaved (PreScission); chain copies: 2; label: 5' IRDye 700 on one strand; 5-nt gap.

B1: 5nt-gapped dsDNA 30-mer (dsDNA)
DNA 1: ACTGGCCGTCGTTCTATTGTACTCACTGTGATC
DNA 2: GATCACAGTGAGTAC
DNA 3: AACGACGGCCAGT
For B1, the results for the binding result in the data set with Pol λ WT and with PAXX (cleaved) were “binds” and “no binding”, respectively.

Source of the values: publication PMC6155126.
